Assay results reported in the nanobody polyreactivity screen of Harvey et al. (2022).

Assay: yeast display, Sf9 membrane polyspecificity reagent, FACS + sequencing; frameworks hold sequencing errors
In short: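 After 36–48 hours of galactose induction, yeast (Saccharomyces cerevisiae BJ5465) displaying a synthetic nanobody library were stained at 4 °C for 1 hour with 10% biotinylated, detergent-solubilized Sf9 membrane reagent. Streptavidin microbeads enriched the stained cells before FACS sorting into low and high (top ~1%) gates on anti-HA and streptavidin fluorescence. Each clone's polyreactivity label reflects its gate of origin.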

QVQLVESGGGLVQAGGSLRLSCAASGFNFYGYVMGWYRQAPGKERELVAVISRSGDRTSYADSVKGRFTISRDTAKNTVYLQMNSLKPEDTAVYYCAAESGWGAAGEELDYWGQGTQVTVSS
polyreactivity (PSR sort gate): high polyreactivity

QVKLVESGAGVVQAGGSLRLSCAACGRIFLKYAMGWYRQAPGKERELVAAITSGGGRTSYADSVKGRFTISRDNAKNTVYLQMNSLKPEDTAVYYCNAPAYWRYILRGSAYDYWGQGTQVTVSS
polyreactivity (PSR sort gate): high polyreactivity

QVQLVESGGGLVQAGRSLRLSCAASVFTFYHYAMGWYRQAPGKVRELVAAISNSGVSTYYADSVKGRFTISRDNAKITVYLQLNSLKPEDTAVYYCNAVYQSYHISGDDYWGQGTQVTVSS
polyreactivity (PSR sort gate): high polyreactivity

QVLLVESGGCLVQAGGSVRLSCAASGSTFAPYVMGWYTQAPGKERELVADISTSGSTYYADSVKGRFTISRDNAKNTVYLQMNSMKPEDTAVYYCAAEDQRWFWTYDCWGQGTQVTVSS
polyreactivity (PSR sort gate): high polyreactivity

QVQHVESGGGLVQAGGSLLLSCAASGSITVSYMGWYRQAPGKERELVAAISFSGASTYYADSVKGRFTISRDDAKNTVYLQMNSLKPEDTAVYYCAAEYVIYYWFEWLDLDYWGQGTQVTVSS
polyreactivity (PSR sort gate): high polyreactivity

QVQLVESGGGLVQAGGSLRLSCAASGRTFSYNAMGWYRQAPGKERELVAAITSSGGGTSYADSVKGRFTISRDNAKNTVYLQMNSLKPEDTAVYYCNRVLPHPDGYGVGARGYWGQGTQVTVSS
polyreactivity (PSR sort gate): high polyreactivity

QVQLVESGGGLVQAGGSLRLSCAASGITFSGNAMGWYRQAPGKERELVAAISRNGGRTYYADSVKGRFTISRDNAKNTVYLQMNSLKPEDTAVYYCAKDAYGYSRVSAWYYTYDYWGQGTQVTVSS
polyreactivity (PSR sort gate): high polyreactivity

QVQLVESGGGLVQAGGSLRLSCAASGIIFGGYAMGWYRQAPGKERELVARITSGGSTNYADSVKGRFTISRDNAKNTVYLQMNSLKPEDTAVYYCNARGGWSWRFYYWGQGTQVTVSS
polyreactivity (PSR sort gate): high polyreactivity

QVQLVESGGGLVQAGGSLRLSCAASGSTFVPYAMGWYRQAPGKERELVARISRRGGSSTYYADSVKGRFTISRDNAKNTVYLQMNSLKPEDTAVYYCNKGHITFASVSSGPSPGGYWGQGTQVTVSS
polyreactivity (PSR sort gate): low polyreactivity

QVQLVESGGGLVQAGGSLRLSCAASGRTFAYNAMGWYRQAPGKEREFVAGISRSGGSTYYADSVKGRFTISRDNAKNTVYLQMNSLKPEDTAVYYCAAQFYALPNVGTKYYSWGQGTQVTVSS
polyreactivity (PSR sort gate): low polyreactivity

QVQLVESGGGLVQAGGSLRLICAAYGLTFTRNAMGWYRQARGKERELVAGITRGGSTYHADSVKGRFTISRDNAKNTVYLQMNSLKPEYTAVYYCAAGVQYARYQARYYYWGQGTQVTVSS
polyreactivity (PSR sort gate): high polyreactivity

QVQLVESGGGLVQAGGSLRLSCAASGSIFGYYAMGWYRQAPGKERELVAAITRGARTYYADSVKGRFTISRDNAKNTVYLQMNSLKPEDTAFYYCNRVPYYEGGNGSWGQGTQVTVSS
polyreactivity (PSR sort gate): high polyreactivity

QVQLVESGGGLVQAGGSLRLSSAASGRTYNVYAMGWSRQAPGKERELVAGITRASTNYADSVKGRFTISRDNAKNTVYLLMNSLKPEVTAVYYCAAKIFPKGDYWGQGTQVTVSS
polyreactivity (PSR sort gate): high polyreactivity

QVQLVESGGGLVQAGGSLRLSCAASGRIFGHYAMGWYRQAPGKERELVAAINWRGGSTYYADSVKGRFTISRDNAKNTVYLQMNSLKPEDTAVYYCAAANFRSYLSQTGPRAYYYWGQGTQVTVSS
polyreactivity (PSR sort gate): low polyreactivity

QGQLLESAGGLLQAGGSLRLSSAASGFNFQQYVMGWYRQARGNERELVASISRRGSRTYYADSVKGGFTISRDNAKNTVYLQMNSLKPEDTAVYYCAAPPSTSEGPYGYWGQGTQVSVSS
polyreactivity (PSR sort gate): high polyreactivity

QVQLVESAGGLVQAGGSLRLSCAATGRTFYVNAMGWYRQAPGKERELVAAISSGDSSTYYADSVKGRFTSSRDNAKNTVYLQMNSLKPEDTAVYYCAAEVWVYFEYEYWGQGTQVTVSS
polyreactivity (PSR sort gate): high polyreactivity

QVQLVQSRGGLVQAGGSLRLSCAASGRTFVYNAMGWYRPAPGKERELVAAIDGGGDRTYYADSVKGRFTISRDNAKNTVYLQMNSLKPEDTAVYYCARDPGDTYYYSYPEGDYWGLGTQVTVSS
polyreactivity (PSR sort gate): low polyreactivity

QVQLVESGGGLVQAGGSLRLSCAASGRIFKWYAMGWYRQAPGKERELVAAISRSGGTTYYADSVKGRFTISSDNAKNTDYLQMNSLKPEDTAVYYCATRNIYFSTVDYWGQGTQVTVSS
polyreactivity (PSR sort gate): high polyreactivity

QVQLVESGGGLVQAGGSLRLSCAASGSIFFSYVMGWYRQAPGKERELVADITYSGGSTFYADSVKGRFTISRDNAKNTVYLQMNSLKPEDTAVYYCAATWYSWGSEFDYWGQGTQVTVSS
polyreactivity (PSR sort gate): high polyreactivity

QVQLVESGGGLVQAGGSLRLSCAASGSIFFRNVMGWYRQAPGKERELVAAISRSGSTNYADSVKGRFTISRDNAKNTVYLQMNSLKPEDTAVYYCAAQQWRRGRYRDTAGPMFAYDYWGQGTQVTVSS
polyreactivity (PSR sort gate): low polyreactivity

QVQLVESGGGFVQAGGSLRLSCAASGSIFDYYTMGWYRQAPGKERELVATIRSGDSTNYADSVKGRFTISRDNAKNTVYLPMNSLKPEDPAVYYCAADYGYQDDYWGQGTQVTVSS
polyreactivity (PSR sort gate): low polyreactivity

QLQLVESRGGLVQSGGSLRLSCAASGRIFWRYAMGWYRQAPGNERELVAAISGRSGSTYYADSVKGRFTISRDNAKNTVYLLMNSLKAEDTAVYYCAAKYGTLRYDYWGQGTQVTVSS
polyreactivity (PSR sort gate): high polyreactivity

QVHLVESGGGLVQAAGSLRLSCAASGRTFNPNAIGWYRQAPGKERELVAVINVGGRTNYADSVKGRFTISRDNAKNTVYLQMNSLKPEDSAVYYCAAISSRNFDYWGQGTQVTVSS
polyreactivity (PSR sort gate): high polyreactivity

QVQLVESGGGLVQAGGSHRLSCAASGRILYRNVMGWYRQAHGKERELVAGISFTGGSTYYADSVKRRFTISRDNAKNTVYLQMNSLKPEDTAVYYCAATYSSYWARYYYWGQGTPVTVSS
polyreactivity (PSR sort gate): high polyreactivity

QVQLEESGGGLVQAGGSLRLSCAASGITFVTYAMGWYRQAPGKERELVAAISRSGGRTYYADSVKGRFTISRDNAKNTVYLQMNSLKPEDTAVYYCAAERKNKYDYWGQGTQVTVSS
polyreactivity (PSR sort gate): high polyreactivity

QVQLEESGGGLVQAGGSLRISCAASGSIVRYKAMGWYRQAHGKERELVAAISSRGGSTYYADSVKGRFTISRDNAKNTVYLQMNSLKPEDTAVYYCNVRWTYKYDYWGQGTQVTVSS
polyreactivity (PSR sort gate): high polyreactivity

QVQLVESGGGLVQAGGSLRLRGAASGFTFLYYAMGWYRQAPGKERELVAAITWSGDSTYYADSEKGRFTISRDYAMNTVYLQMNSLKPEDTAVYYCATGGVTFGSVVRGVDGDYWGQGTQVTVSS
polyreactivity (PSR sort gate): low polyreactivity

QVQLVESGGALVQAGGSLRLSSAASGSIFGSNGIGSYRPAPGKERELVAAITRSGGSTRYADSVKGRFTISRDNAKNTVYLQMNSLKPEDTAVYYCAKYDTSTGYDYWGQGTQVTVSS
polyreactivity (PSR sort gate): high polyreactivity

QVQIEESGGGLVQAGGSLRLSCAASGRTFNFYAMGWYRQATGKERELVAAISHGDSTYYADSVKGRFTISRDNAKNTVYLQMNSLKPEDTAVYYCAASQKYYLRKYEYWGQGTQVTVSS
polyreactivity (PSR sort gate): low polyreactivity

QVQLVESGGGLVQAGGSLRLSCAASGFILQYNAMGWYRQAPGKEREFVATITGSGGSTYYADSVKGRFTISRDNAKNTVYIQMYSLKPEDTAFYYCNAETYIDLSGKFPVDYDYWGQGTQVTVSS
polyreactivity (PSR sort gate): low polyreactivity

QVQLVESGGRLVQAGGSLRLSCAASGLIFNDNAMGWYRQAPGKERELVAAISWGGGTTYYADSVKGRFSNSRDNAKYTVFLQMNSLKPEDTAVYYCAAEEAMFYDFYYVLLDYWGQGTQVTVSS
polyreactivity (PSR sort gate): high polyreactivity

QVQLVESGGGLVQAGGSLRLSCAASGRTFYGYAMGWYREAPGKERELVASISWSTGSTHYADSVKGRFTISRDNAKNTVYLQMNSLKPEDTAVYYCAAPFWRDSYVQIDYDYWGQGTQVTVSS
polyreactivity (PSR sort gate): low polyreactivity

QVQLVESGGGLVQAGGSLRLSCAASGSTFSIYAMGWYRQAPGKERELVAAISGSGSRTYYADSVKGRFTISRDNAKNTVYLQMNSLKPEDTAVYYCAARGRHRDGFDFNYWGQGTQVTVSS
polyreactivity (PSR sort gate): high polyreactivity

QVQLVESGGGLVQAGGSLRLSCAASGFTFDSYAMGWYRQAPGKERELVADITWDGGSTYYADSVKGRFTISRDNAKNTVYLQMKSLKPEDTAVYYCAADFGTFSIDVYSWMDYWGQGTQATVSS
polyreactivity (PSR sort gate): low polyreactivity

QVQHVESGGGLVQAGGSLRLSCAASGRTFRRNAVGWYRQAPGNERELVATISRGGSTTYADSVKGRFTISRDKAKNTVYLQMNSLKPEDTAVYYCAARTSKRYSYADHDYWGQGTQVTVSS
polyreactivity (PSR sort gate): low polyreactivity

QVQLVESGARLVQAGGSLRLSCAASGRTFSTYTMGWYRQAPGKERELVAAITSSGGGTYYADSVKGRFTISRDTAKNTVFLQMNSLKPEDTAVYYCATVRTYRPPVRRGYWGQGTQVTVSS
polyreactivity (PSR sort gate): high polyreactivity

QVQLVESGGGLVQAGGSLRLSCASSGRTFFKNALGWYRQSPGKERELVARISWNGGDSTYYADSVKGRFTISRDNAKITVFFQMISLKPEDTAVYYCAADTSYRQGGSRHGYVYWGQGTQVTVSS
polyreactivity (PSR sort gate): low polyreactivity

QVLLVESGGGIVQAGGSLRLSCAASGSIIEPNAMGWYRQEPGQEREFVAAISGSGGSTYYADSVKGRFTSSRDNAKNTVYLQRNSLKPEYSAVYYCNALYLRTTPQDYDYWGQGTQVTVSS
polyreactivity (PSR sort gate): high polyreactivity

QVQLVESGGGLVQAGGSLRLSCAASGSIFRTYTMGWYRQAPGKERELVAAITRSGGRTFYADSVKGRFTISRDTAKNTVYLQMHSLKPEDTAVYYCAAKRTGDYDWGQGTQVTVSS
polyreactivity (PSR sort gate): high polyreactivity

QVQLEESGGGLVQAGGSLRLSCAASGRIFGYYAMGWYRKAPGKERELVAAIRRSGASTYYADSVKGRFTISRDNAENTVYLQMYSLKPVDTAVYYCSQAGYSPVYGYWGQGTQVTVSS
polyreactivity (PSR sort gate): high polyreactivity

QVQLVESGGGLVQAGGSLRLSCAASGGTVWYYTMGWYRQAPGKERELVARITGGSRTNYADSVNGRFTISRDNAKNTVYLQMNSLKPEDTAVYYCARTSWSGVSYDYWGQGTQVTVSS
polyreactivity (PSR sort gate): high polyreactivity

QVQLVESGAGIVQAGGSLRLSCAASGIIFNLYAMGWYRQAPGKERELVASISIGGSTNYADSVKGRFTISRDNAKNTVYLQMNSLKPEDTAVYYCAAALYEATYDANGLDMDYWGQGTQVTVSS
polyreactivity (PSR sort gate): high polyreactivity

QVQLEESGGGLVQAGGSLRLSCAASGITIRIYAKGCYRQAPGKERELVAGISSSGSTNYADSVKGRFTISRDNAKNTVYLQMNSLKPEDTAVYYCAADAFYIFDYWGQGTQVTVSS
polyreactivity (PSR sort gate): high polyreactivity
